This is an account of results in paper PMC2064056.

Assay [1] addresses LF1p (aa 1-330), GAL4 two-hybrid fusion (C. reinhardtii) (UniProt Q7XJJ6). Description: two-hybrid.
For assay [2], the target named is LF2p, full-length coding region, GAL4 two-hybrid fusion (C. reinhardtii) (UniProt A0MM70). Description: two-hybrid.

On to “LF3p, full-length coding region, GAL4 two-hybrid fusion (natural protein)”, for which the β-galactosidase (Miller units) in assay [1] worked out at 61.1 Miller units; in assay [2], 15.8 Miller units.
